# Measurements: article doi:10.1101/462036 (bioRxiv, 2018)
# B1: RIG-5 IG1 (purified, hexahistidine tag) (domain or fragment)
# chain: GAPPTIQQPSMSSAVALLGQDVDFTCIVNDLGSHMVAFVKADSPPRLLSFDEKVFRRRNKYELKPRIGDLHNEWVLTIKNVQESDRGNYSCQINTEPITLSTGELDVKVP
# modifications: one N-linked glycan per monomer
# Molecular target: the molecule itself
# Assay: SEC
protein,measurement,value
B1,stoichiometry N,2
